# Measured values reported in US20240261333A1 (published 2024).
# How the values were obtained:
# [1] = biological target: T1, FLAG tagged B3GNT2 (N- or C-terminal FLAG tag) (human, UniProt Q9NY97 1-397); assay: co-IP of FLAG tagged B3GNT2 from A375 lysate, Western blot
# T1 construct: The text speaks of the co-IP of B3GNT2 without separating the N-FLAG and C-FLAG constructs, so both are held as one molecule; also called N-FLAG B3GNT2; C-FLAG B3GNT2; not shown: FLAG tag at the N- or the C-terminus
# T1 sequence (looked up): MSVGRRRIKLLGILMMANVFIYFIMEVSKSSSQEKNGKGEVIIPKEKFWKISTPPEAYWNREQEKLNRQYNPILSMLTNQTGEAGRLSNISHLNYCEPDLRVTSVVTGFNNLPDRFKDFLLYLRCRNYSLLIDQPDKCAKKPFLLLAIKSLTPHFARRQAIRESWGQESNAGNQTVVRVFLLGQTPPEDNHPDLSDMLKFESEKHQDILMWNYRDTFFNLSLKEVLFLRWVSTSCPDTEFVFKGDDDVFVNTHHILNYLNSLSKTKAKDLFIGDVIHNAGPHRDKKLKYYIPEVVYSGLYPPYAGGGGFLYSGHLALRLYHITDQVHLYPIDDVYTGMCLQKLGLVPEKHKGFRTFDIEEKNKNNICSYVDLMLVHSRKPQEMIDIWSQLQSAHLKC
# Protocol: (§1) Cells were plated in 10-cm cell culture dishes and grown to 60-80% confluency. For each condition, two biological replicates were harvested for co-IP. Cells were washed with PBS and 4 mL of lysis buffer (20 mM HEPES, 1% Triton X-100, 150 mM NaCl, 1 mM EDTA, and 10% glycerol) containing protease inhibitor cocktail was added. Cells were scraped and lysate was incubated at 4° C. under rotary agitation for 1 h. Lysate was centrifuged at 14,000×g for 10 min at 4° C. Supernatant was transferred to a new tube and an aliquot was taken as the input. […] For Western blots, 10 μg/mL Chicken Anti-FLAG (Aves labs ET-DY100) and IgY control (R&D Systems AB-101-C) antibodies were biotinylated (Thermo Fisher Scientific 90407) and added to the respective conditions. Lysates with antibodies were incubated at 4° C. under rotary agitation overnight. For each mL of lysate, 50 μL of Pierce Protein A/G Magnetic Beads (Mass spectrometry; Thermo Fisher Scientific 88803) or Pierce Streptavidin Magnetic Beads (Western blot; Thermo Fisher Scientific 88817) was washed twice with lysis buffer. Lysates with antibodies were added to the beads and incubated at 4° C. under rotary agitation for 4 h. Beads were washed with lysis buffer 3 times and resuspended in lysis buffer for storage.
# PABPC1 = biological target: T2, PABPC1 (human, UniProt P11940 1-636); assay: co-IP with mouse anti-FLAG from lysate of cells overexpressing C-FLAG B3GNT2, then mass spectrometry
# T2 construct: Identified by mass spectrometry in the co-IP; also called NP_002559.2
# Protocol: as §1
# (§2) Magnetic beads were resuspended in 100 mM Tris pH 7.8, reduced, alkylated and digested with trypsin at 37° ° C. overnight. This solution was subjected to solid phase extraction to concentrate the peptides and remove unwanted reagents followed by injection onto a Shimadzu HPLC with fraction collector. Eight fractions were collected and after concentration were injected on a Waters NanoAcquity HPLC equipped with a self-packed Aeris 3 μm C18 analytical column 0.075 mm by 20 cm, (Phenomenex). Peptides were eluted using standard reverse-phase gradients. The effluent from the column was analyzed using a Thermo Orbitrap Elite mass spectrometer (nanospray configuration) operated in a data dependent manner for 54 minutes. The resulting fragmentation spectra were correlated against the known database using Proteome Discover 1.4 (Thermo Fisher Scientific).
# KHDRBS1 = biological target: T3, KHDRBS1 (human, UniProt Q07666 1-443); assay: as above
# T3 construct: Identified by mass spectrometry in the co-IP; also called NP_006550.1
# Protocol: as §1, §2
# ANXA2 = biological target: T4, ANXA2 (human, UniProt P07355-2 1-357, limits assumed); assay: as above
# T4 construct: Identified by mass spectrometry in the co-IP; also called NP_001002858.1 (+1)
# Protocol: as §1, §2
# CAPRIN1 = biological target: T5, CAPRIN1 (human, UniProt Q14444 2-709); assay: as above
# T5 construct: Identified by mass spectrometry in the co-IP; also called NP_005889.3 (+1)
# T5 sequence (looked up): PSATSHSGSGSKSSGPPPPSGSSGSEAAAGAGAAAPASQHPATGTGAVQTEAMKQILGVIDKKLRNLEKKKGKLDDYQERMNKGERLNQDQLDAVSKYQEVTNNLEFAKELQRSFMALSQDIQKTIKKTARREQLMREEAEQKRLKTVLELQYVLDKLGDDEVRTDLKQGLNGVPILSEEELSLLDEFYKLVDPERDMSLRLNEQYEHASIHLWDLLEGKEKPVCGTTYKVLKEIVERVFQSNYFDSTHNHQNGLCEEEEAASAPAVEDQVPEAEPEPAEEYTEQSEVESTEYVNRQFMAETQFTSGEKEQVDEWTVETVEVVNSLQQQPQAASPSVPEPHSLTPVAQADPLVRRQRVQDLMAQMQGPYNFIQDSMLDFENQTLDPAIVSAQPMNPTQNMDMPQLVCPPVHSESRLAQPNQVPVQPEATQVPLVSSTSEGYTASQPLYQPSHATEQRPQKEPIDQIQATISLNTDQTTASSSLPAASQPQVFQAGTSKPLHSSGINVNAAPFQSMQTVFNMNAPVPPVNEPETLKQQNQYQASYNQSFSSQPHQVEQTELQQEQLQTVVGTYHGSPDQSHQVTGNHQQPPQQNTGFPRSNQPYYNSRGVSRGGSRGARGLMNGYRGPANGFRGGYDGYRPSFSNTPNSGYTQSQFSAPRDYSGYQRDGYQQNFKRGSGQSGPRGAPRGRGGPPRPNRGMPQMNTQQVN
# Protocol: as §1, §2
# CPSF6 = biological target: T6, CPSF6 (human, UniProt Q16630-2 1-588, limits assumed); assay: as above
# T6 construct: Identified by mass spectrometry in the co-IP; also called NP_001287876.1 (+3)
# T6 sequence (looked up): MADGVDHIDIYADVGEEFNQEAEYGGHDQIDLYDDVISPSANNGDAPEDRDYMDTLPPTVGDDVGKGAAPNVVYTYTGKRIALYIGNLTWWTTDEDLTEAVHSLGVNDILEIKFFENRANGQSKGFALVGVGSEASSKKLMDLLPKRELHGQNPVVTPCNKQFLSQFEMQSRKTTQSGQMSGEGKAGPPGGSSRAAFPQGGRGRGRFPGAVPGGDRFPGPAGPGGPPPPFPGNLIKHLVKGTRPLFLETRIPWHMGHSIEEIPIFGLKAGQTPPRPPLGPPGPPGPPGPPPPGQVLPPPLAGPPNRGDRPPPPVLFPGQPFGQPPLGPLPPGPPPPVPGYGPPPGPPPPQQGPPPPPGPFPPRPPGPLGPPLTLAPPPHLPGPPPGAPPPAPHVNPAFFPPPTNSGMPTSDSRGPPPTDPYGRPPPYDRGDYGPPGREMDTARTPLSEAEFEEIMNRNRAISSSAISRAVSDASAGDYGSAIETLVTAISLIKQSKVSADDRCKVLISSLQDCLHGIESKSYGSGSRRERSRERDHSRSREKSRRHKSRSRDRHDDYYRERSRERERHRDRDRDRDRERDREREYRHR
# Protocol: as §1, §2
# CASC3 = biological target: T7, CASC3 (human, UniProt O15234 1-703); assay: as above
# T7 construct: Identified by mass spectrometry in the co-IP; also called NP_031385.2
# Protocol: as §1, §2
# VIM = biological target: T8, VIM (human, UniProt P08670 2-466); assay: as above
# T8 construct: Identified by mass spectrometry in the co-IP; also called NP_003371.2
# Protocol: as §1, §2
# T4 sequence (P07355 other isoform, or with tags, fused parts or gaps limits assumed): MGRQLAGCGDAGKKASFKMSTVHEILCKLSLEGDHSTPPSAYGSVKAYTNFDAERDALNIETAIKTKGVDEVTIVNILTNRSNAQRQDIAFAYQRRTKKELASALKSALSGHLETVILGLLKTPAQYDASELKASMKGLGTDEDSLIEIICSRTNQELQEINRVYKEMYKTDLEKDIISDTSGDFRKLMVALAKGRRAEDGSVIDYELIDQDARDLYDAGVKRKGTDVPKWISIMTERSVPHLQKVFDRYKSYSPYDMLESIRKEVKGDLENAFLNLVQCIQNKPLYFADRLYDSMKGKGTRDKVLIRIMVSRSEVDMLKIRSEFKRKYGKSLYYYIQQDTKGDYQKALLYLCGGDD
# T3 sequence (Q07666 whole entry): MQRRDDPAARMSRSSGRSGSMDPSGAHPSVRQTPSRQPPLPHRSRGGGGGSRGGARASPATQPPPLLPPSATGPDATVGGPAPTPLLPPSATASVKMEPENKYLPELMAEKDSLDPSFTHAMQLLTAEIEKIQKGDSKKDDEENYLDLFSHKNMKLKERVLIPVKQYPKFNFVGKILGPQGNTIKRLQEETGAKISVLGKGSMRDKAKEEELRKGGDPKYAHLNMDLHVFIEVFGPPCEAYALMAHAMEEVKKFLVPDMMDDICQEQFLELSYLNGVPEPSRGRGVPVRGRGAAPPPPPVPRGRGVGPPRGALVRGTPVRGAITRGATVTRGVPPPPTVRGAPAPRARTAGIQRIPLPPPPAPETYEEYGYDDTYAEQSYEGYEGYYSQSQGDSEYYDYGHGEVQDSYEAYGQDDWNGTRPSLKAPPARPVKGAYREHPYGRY
# T8 sequence (P08670 2-466 limits assumed): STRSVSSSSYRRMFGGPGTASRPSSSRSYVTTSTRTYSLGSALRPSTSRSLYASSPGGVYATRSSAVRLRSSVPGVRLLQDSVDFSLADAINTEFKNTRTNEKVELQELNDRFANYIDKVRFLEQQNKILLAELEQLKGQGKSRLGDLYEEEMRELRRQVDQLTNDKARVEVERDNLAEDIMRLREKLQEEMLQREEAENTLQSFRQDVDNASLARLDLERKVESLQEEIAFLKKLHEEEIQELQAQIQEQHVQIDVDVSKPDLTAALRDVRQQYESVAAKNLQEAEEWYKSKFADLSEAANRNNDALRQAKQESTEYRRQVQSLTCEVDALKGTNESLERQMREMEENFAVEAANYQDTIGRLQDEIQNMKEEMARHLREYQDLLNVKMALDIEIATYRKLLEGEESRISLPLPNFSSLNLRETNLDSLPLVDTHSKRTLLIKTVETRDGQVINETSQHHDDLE
# T2 sequence (P11940 whole entry): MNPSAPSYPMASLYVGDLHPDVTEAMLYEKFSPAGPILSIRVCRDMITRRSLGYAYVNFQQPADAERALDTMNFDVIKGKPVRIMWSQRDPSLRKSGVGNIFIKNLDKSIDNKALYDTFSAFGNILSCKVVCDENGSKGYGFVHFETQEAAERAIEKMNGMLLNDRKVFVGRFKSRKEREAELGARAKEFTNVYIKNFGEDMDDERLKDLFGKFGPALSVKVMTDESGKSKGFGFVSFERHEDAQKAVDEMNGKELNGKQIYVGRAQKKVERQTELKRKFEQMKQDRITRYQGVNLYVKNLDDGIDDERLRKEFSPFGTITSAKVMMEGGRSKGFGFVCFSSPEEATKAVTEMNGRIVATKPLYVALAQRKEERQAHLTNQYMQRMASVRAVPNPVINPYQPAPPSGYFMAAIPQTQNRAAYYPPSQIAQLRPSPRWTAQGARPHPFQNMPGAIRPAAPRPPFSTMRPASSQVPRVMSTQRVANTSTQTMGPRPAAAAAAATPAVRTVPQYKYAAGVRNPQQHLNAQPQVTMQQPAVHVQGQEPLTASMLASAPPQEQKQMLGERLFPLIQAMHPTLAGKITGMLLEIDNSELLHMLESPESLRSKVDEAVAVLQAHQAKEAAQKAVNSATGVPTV
# T7 sequence (O15234 whole entry): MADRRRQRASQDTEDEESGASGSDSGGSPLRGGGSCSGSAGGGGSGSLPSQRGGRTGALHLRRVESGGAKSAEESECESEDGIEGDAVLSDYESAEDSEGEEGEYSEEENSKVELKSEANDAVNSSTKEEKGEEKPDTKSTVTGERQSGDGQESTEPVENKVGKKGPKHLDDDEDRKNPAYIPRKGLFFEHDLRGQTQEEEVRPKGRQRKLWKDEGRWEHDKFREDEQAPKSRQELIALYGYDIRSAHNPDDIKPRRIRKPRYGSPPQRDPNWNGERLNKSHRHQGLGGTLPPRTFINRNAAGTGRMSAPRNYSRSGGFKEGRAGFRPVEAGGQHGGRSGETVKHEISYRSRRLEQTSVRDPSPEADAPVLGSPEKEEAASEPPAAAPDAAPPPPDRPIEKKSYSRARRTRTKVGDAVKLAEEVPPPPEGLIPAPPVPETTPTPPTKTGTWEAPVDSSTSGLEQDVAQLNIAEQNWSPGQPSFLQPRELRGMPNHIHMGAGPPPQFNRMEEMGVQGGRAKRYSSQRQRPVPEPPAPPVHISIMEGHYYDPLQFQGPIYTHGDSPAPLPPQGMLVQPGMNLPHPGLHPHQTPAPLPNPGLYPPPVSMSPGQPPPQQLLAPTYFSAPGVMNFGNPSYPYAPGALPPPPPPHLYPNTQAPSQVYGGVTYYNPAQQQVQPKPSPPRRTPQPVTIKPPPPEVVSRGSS
binder,measurement,setting,value
"IFNGR2, endogenous in A375 melanoma cells (receptor, human, UniProt P38484 22-337, looked up, poly-LacNAc glycosylation added by B3GNT2 (sites not given), whole, on cells; In the co-IP it comes from the lysate of A375 cells) APPDPLSQLPAPQHPKIRLYNAEQVLSWEPVALSNSTRPVVYQVQFKYTDSKWFTADIMSIGVNCTQITATECDFTAASPSAGFPMDFNVTLRLRAELGALHSAWVTMPWFQHYRNVTVGPPENIEVTPGEGSLIIRFSSPFDIADTSTAFFCYYVHYWEKGGIQQVKGPFRSNSISLDNLKPSRVYCLQVQAQLLWNKSNIFRVGHLSNISCYETMADASTELQQVILISVGTFSLLSVLAGACFFLVLKYRGLIKYWFHTPPSIPLQIEEYLKDPTQPILEALDKDSSPKDDVWDSVSIISFPEKEQEDVLQTL",binding result,[1],binds
"CD58, endogenous in A375 melanoma cells (ligand, human, UniProt P19256 29-250, looked up, poly-LacNAc glycosylation added by B3GNT2 (sites not given), whole, on cells; On fixed A375 cells in flow cytometry; In the co-IP it comes from the lysate of these cells) FSQQIYGVVYGNVTFHVPSNVPLKEVLWKKQKDKVAELENSEFRAFSSFKNRVYLDTVSGSLTIYNLTSSDEDEYEMESPNITDTMKFFLYVLESLPSPTLTCALTNGSIEVQCMIPEHYNSHRGLIMYSWDCPMEQCKRNSTSIYFKMENDLPQKIQCTLSNPLFNTTSSIILTTCIPSSGHSRHRYALIPIPLAVITTCIVLYMNGILKCDRKPDRTNSN",binding result,[1],binds
"MICB, endogenous in A375 melanoma cells (ligand, human, UniProt Q29980 23-383, looked up, poly-LacNAc glycosylation added by B3GNT2 (sites not given), whole, on cells; On fixed A375 cells in flow cytometry; In the co-IP it comes from the lysate of these cells) AEPHSLRYNLMVLSQDGSVQSGFLAEGHLDGQPFLRYDRQKRRAKPQGQWAENVLGAKTWDTETEDLTENGQDLRRTLTHIKDQKGGLHSLQEIRVCEIHEDSSTRGSRHFYYDGELFLSQNLETQESTVPQSSRAQTLAMNVTNFWKEDAMKTKTHYRAMQADCLQKLQRYLKSGVAIRRTVPPMVNVTCSEVSEGNITVTCRASSFYPRNITLTWRQDGVSLSHNTQQWGDVLPDGNGTYQTWVATRIRQGEEQRFTCYMEHSGNHGTHPVPSGKALVLQSQRTDFPYVSAAMPCFVIIIILCVPCCKKKTSAAEGPELVSLQVLDQHPVGTGDHRDAAQLGFQPLMSATGSTGSTEGT",binding result,[1],binds
"CD70, endogenous in A375 melanoma cells (ligand, human, UniProt P32970 1-193, looked up, poly-LacNAc glycosylation added by B3GNT2 (sites not given), whole, on cells; In the co-IP it comes from the lysate of A375 cells) MPEEGSGCSVRRRPYGCVLRAALVPLVAGLVICLVVCIQRFAQAQQQLPLESLGWDVAELQLNHTGPQQDPRLYWQGGPALGRSFLHGPELDKGQLRIHRDGIYMVHIQVTLAICSSTTASRHHPTTLAVGICSPASRSISLLRLSFHQGCTIASQRLTPLARGDTLCTNLTGTLLPSRNTDETFFGVQWVRP",binding result,[1],binds
"C-terminal FLAG tagged B3GNT2 (enzyme, human, UniProt Q9NY97 1-397, looked up, FLAG-tagged ORF overexpressed in A375 cells; bait of the co-IP with mouse anti-FLAG; also called C-FLAG B3GNT2; C-term flag; not shown: C-terminal FLAG tag) MSVGRRRIKLLGILMMANVFIYFIMEVSKSSSQEKNGKGEVIIPKEKFWKISTPPEAYWNREQEKLNRQYNPILSMLTNQTGEAGRLSNISHLNYCEPDLRVTSVVTGFNNLPDRFKDFLLYLRCRNYSLLIDQPDKCAKKPFLLLAIKSLTPHFARRQAIRESWGQESNAGNQTVVRVFLLGQTPPEDNHPDLSDMLKFESEKHQDILMWNYRDTFFNLSLKEVLFLRWVSTSCPDTEFVFKGDDDVFVNTHHILNYLNSLSKTKAKDLFIGDVIHNAGPHRDKKLKYYIPEVVYSGLYPPYAGGGGFLYSGHLALRLYHITDQVHLYPIDDVYTGMCLQKLGLVPEKHKGFRTFDIEEKNKNNICSYVDLMLVHSRKPQEMIDIWSQLQSAHLKC",co-IP mass spectrometry count (C-term flag),PABPC1,41
same,co-IP mass spectrometry count (C-term flag),KHDRBS1,9
same,co-IP mass spectrometry count (C-term flag),ANXA2,15
same,co-IP mass spectrometry count (C-term flag),CAPRIN1,6
same,co-IP mass spectrometry count (C-term flag),CPSF6,35
same,co-IP mass spectrometry count (C-term flag),CASC3,0
same,co-IP mass spectrometry count (C-term flag),VIM,411
"FAS, endogenous in A375 melanoma cells (receptor, human, UniProt P25445 26-335, looked up, poly-LacNAc glycosylation added by B3GNT2 (sites not given), whole, on cells; In the co-IP it comes from the lysate of A375 cells; also called Fas receptor) QVTDINSKGLELRKTVTTVETQNLEGLHHDGQFCHKPCPPGERKARDCTVNGDEPDCVPCQEGKEYTDKAHFSSKCRRCRLCDEGHGLEVEINCTRTQNTKCRCKPNFFCNSTVCEHCDPCTKCEHGIIKECTLTSNTKCKEEGSRSNLGWLCLLLLPIPLIVWVKRKEVQKTCRKHRKENQGSHESPTLNPETVAINLSDVDLSKYITTIAGVMTLSQVKGFVRKNGVNEAKIDEIKNDNVQDTAEQKVQLLRNWHQLHGKKEAYDTLIKDLKKANLCTLAEKIQTIILKDITSDSENSNFRNEIQSLV",binding result,[1],binds
